Reference: publication PMC9718833

Tests used:
[1] = molecular target: Gi3 heterotrimer of the BRET-based Gi-activation sensor (Gai3-RlucII / GFP10Gγ2 / Gβ1) (UniProt P08754)
[2] = molecular target: Gs protein (human (endogenous in HEK293T)) (UniProt P63092)
Sequence of UniProt P63092 (P63092 whole entry, looked up): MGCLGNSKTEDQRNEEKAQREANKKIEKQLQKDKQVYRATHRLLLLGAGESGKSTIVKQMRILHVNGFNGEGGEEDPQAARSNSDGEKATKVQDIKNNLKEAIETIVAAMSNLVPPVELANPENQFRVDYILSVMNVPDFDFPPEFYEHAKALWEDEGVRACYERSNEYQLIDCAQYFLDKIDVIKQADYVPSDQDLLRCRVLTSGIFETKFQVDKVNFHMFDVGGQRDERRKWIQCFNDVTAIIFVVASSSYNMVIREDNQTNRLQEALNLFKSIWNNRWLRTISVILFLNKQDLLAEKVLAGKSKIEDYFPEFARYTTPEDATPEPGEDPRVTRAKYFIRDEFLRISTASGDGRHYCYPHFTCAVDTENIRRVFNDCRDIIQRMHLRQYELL

Sequence of UniProt P08754 (P08754 whole entry, chain 1 of 3): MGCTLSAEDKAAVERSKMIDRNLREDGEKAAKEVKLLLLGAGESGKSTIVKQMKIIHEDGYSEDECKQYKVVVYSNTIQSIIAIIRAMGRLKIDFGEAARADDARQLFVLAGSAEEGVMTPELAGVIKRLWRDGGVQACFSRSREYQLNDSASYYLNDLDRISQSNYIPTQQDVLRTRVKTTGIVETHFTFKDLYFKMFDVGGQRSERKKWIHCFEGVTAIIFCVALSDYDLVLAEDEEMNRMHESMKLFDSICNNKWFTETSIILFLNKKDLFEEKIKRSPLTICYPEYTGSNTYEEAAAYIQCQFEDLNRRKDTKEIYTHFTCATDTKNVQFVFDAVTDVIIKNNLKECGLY
Sequence of UniProt P08754 (P62873 whole entry, chain 2 of 3, further chain): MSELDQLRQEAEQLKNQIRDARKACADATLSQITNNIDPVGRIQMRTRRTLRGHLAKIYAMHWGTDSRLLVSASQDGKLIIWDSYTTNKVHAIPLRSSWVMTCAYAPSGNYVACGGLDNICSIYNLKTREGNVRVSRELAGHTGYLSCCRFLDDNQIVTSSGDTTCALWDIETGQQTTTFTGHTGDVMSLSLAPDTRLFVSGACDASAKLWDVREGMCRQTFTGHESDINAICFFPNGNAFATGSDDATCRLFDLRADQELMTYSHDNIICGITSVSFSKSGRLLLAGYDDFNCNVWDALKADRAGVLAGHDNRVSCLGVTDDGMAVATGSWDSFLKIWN
Sequence of UniProt P08754 (P59768 whole entry, chain 3 of 3, further chain): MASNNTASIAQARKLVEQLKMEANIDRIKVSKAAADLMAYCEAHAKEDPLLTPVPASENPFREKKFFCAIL

| Substance | increase of the Emax of CHRM1 activation of Gi compared to WT CHRM1, BRET-based Gi-activation (Gi3) sensor in HEK293T, carbachol (% increase of Emax against WT) [1] | increase of the Emax of Gs-dependent cAMP production following carbachol, EPAC-BRET sensor in HEK293T with 500 nM of the Gq inhibitor YM-254890, against WT CHRM1 (% increase of Emax) [2] |
| --- | --- | --- |
| HA-tagged human M1 muscarinic acetylcholine receptor (CHRM1) A424K (from UniProt P11229 1-460) | 31 | – |
| HA-tagged human M1 muscarinic acetylcholine receptor (CHRM1) E221K (from UniProt P11229 1-460) | 30 | – |
| HA-tagged human M1 muscarinic acetylcholine receptor (CHRM1) L131F (from UniProt P11229 1-460) | – | 51 |
| HA-tagged human M1 muscarinic acetylcholine receptor (CHRM1) R218Q (from UniProt P11229 1-460) | – | 17 |
